For the assay, the target named is GST-EVH1 domain of VASP (UniProt P70460 1-113). The experiment in a line: pull-down.

Consider one molecule from publication doi:10.1101/529222 (bioRxiv, 2019).

GST-EVH1 domain of VASP, sequence (P70460 1-113): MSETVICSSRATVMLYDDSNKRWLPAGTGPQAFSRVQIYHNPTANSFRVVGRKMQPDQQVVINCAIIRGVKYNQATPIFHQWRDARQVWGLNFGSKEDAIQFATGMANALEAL

B1: endogenous TRIM9 (natural protein, mouse (endogenous in E15.5 cortex), UniProt Q8C7M3 1-817, looked up)
chain: MEEMEEELKCPVCGSFYREPIILPCSHNLCQACARNILVQTPESESPQSRRASGSGVSDYDYLDLDKMSLYSEADSGYGSYGGFASAPTTPCQKSPNGVRVFPPAMPPPPTHLSPALAPVPRNSCITCPQCHRSLILDDRGLRGFPKNRVLEGVIDRYQQSKAAALKCQLCEKAPKEATVMCEQCDVFYCDPCRLRCHPPRGPLAKHRLVPPAQGRVSRRLSPRKVSTCTDHELENHSMYCVQCKMPVCYQCLEEGKHSSHEVKALGAMWKLHKSQLSQALNGLSDRAKEAKEFLVQLRTMVQQIQENSVEFEACLVAQCDALIDALNRRKAQLLARVNKEHEHKLKVVRDQISHCTVKLRQTTGLMEYCLEVIKENDPSGFLQISDALIRRVHLTEDQWGKGTLTPRMTTDFDLSLDNSPLLQSIHQLDFVQVKASSPVPATPILQLEECCTHNNSATLSWKQPPLSTVAADGYILELDDGSGGQFREVYVGKETMCTVDGLHFNSTYNARVKAFNKTGVSPYSKTLVLQTSEAAGAHETKPMKDTDSEEQTLPFPVPSERLPLRRMSPFSSTLNLQPSFPGRSYFDFRSSPHQLSLHSSLQSLNAPGCNFETQSASYSQLVDIKKLLAVAWFAFDPGSAHSDIIFSNDNLTVTCSSYDDRVVLGKTGFSKGVHYWELTIDRYDNHPDPAFGVARIDVMKDMMLGKDDKAWAMYVDNNRSWFMHNNSHTNRTEGGITKGATIGVLLDLNRKTLTFFVNNEQQGPIAFENVEGLFFPAVSLNRNVQVSLWAPGLRACSGCYFKVCPGAVKSPQAPAP
As for B1, the “fold change of TRIM9 precipitated, Trim67-/- lysate against wild-type lysate” value was around 2 fold.
